Measurements from patent publication US20240239878A1 (SHANGHAI QILU PHARMACEUTICAL RESEARCH AND DEVELOPMENT CENTRE, published 2024).

T1: human DLL3 antigen protein (Kactus Biosystems, Cat. No. DLL-HM103) (human, UniProt Q9NYJ7 27-492)
T1 sequence: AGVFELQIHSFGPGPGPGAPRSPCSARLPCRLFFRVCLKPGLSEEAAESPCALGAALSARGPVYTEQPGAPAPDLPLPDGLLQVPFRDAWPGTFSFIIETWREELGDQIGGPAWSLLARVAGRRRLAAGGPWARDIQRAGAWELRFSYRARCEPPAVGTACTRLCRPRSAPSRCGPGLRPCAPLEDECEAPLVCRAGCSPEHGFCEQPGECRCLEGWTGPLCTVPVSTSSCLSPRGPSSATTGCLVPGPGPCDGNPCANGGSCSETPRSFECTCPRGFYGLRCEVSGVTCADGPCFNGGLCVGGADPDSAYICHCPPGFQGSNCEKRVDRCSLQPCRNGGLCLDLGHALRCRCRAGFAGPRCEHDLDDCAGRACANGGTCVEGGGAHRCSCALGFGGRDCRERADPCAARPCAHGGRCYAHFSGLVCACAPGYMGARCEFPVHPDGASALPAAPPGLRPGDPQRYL

T2: Cynomolgus monkey DLL3 antigen protein (Kactus Biosystems, Cat. No. CM103) (Cynomolgus monkey, UniProt Q9NYJ7 27-490 (human entry))
T2 construct: also called cyno DLL3
T2 chain: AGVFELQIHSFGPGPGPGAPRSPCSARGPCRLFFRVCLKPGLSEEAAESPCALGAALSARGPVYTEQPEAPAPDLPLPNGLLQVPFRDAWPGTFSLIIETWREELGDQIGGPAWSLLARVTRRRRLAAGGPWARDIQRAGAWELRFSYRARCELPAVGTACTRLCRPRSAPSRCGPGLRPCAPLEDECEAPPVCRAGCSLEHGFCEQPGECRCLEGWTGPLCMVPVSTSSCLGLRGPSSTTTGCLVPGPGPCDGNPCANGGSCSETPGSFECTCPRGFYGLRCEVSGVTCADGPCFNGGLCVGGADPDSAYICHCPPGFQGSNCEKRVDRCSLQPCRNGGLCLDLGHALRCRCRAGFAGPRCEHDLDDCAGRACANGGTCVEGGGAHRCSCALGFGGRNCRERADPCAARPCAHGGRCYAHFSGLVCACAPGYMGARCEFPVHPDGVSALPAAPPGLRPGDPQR


Tests used:
[1] = target: T3, human DLL4 (Sino Biological, Cat. No. 10171-H08H) (human, UniProt Q9NR61 27-529); test: ELISA, plate coated with human DLL4 at 1 ug/mL, OD 450nm
T3 construct: also called family protein DLL4
Method: The antigenic proteins human DLL1 (SinoBiological, cat. No. 11635-H08H) or human DLL4 (SinoBiological, cat. No. 10171-H08H) were dissolved in 1×PBS at a concentration of 1 μg/mL. […] The antigen was washed three times with PBST, 300 μL/well. The antigen was blocked with 1% BSA (in PBST), 200 µL/well, and incubated at 37° C. for 1.5 hours.
Antibodies to be tested were diluted with 1% BSA (in PBS) at a starting concentration of 100 nM, downwards by a 10-fold gradient for 7 concentrations. The plates were washed three times with PBST, 300 μL/well. The diluted antibody was added to an ELISA plate at 100 μL/well and incubated at room temperature for 2 hours. The antibodies were washed three times with PBST, 300 μL/well. The secondary antibodies (goat anti-human IgG Fc for DLL4 (HRP), 1:20000 dilution; HRP goat anti-mouse IgG (H+L) for DLL1, 1:10000 dilution) were diluted with 1% BSA in PBST. The diluted secondary antibodies were added to the ELISA plate at 100 μL/well and incubated at room temperature for 1 hour. The plates were washed 6 times with PBST, 300 μL/well. The developing solution (TMA and TMB 1:1 mixed) was prepared. The developing solution was added to the plate, 100 μL/well, and incubated in the dark for 5 min. 50 μL of ELISA stop solution was added to the plate and shaken well.

[2] = target: T1, human DLL3 antigen protein (Kactus …); test: SPR (Biacore 8K), antibody captured on anti-human Fc, DLL3 in solution
Method: The affinity and kinetic properties of the humanized anti-DLL3 antibody to human DLL3 were analyzed using a Biacore 8K instrument. CM5 chips were activated with EDC and NHS, followed by immobilization of anti-human Fc murine mAb and blocked with ethanolamine.
Human DLL3 was diluted two-fold serially to serial concentrations (100 nM-0.39 nM) and associated for 90 s and dissociated for 600 s at a flow rate of 50 μL/min.
After completion of each round of the experiment, the captured antibody was removed together with the antigen by washing with a 3M MgCl₂ solution at a flow rate of 30 μL/min for 30 s to complete the regeneration of the chip. The raw data were analyzed using Biacore Insight Evaluation Software (3.0.12.15655) software and fitted with a (1:1) Langmuir model with.

[3] = target: T2, Cynomolgus monkey DLL3 antigen protein …; test: affinity assay with Cynomolgus monkey DLL3 antigen protein (kinetics; method not restated, Biacore as in Example 18 implied)
[4] = target: T1, human DLL3 antigen protein (Kactus …); test: affinity assay with human DLL3 antigen protein (kinetics; method not restated, Biacore as in Example 18 implied)
[5] = target: T1, human DLL3 antigen protein (Kactus …); test: affinity assay with human DLL3 antigen protein (kinetics; method not restated, Biacore as in Example 10 implied)

T3 sequence (Q9NR61 27-529 limits assumed): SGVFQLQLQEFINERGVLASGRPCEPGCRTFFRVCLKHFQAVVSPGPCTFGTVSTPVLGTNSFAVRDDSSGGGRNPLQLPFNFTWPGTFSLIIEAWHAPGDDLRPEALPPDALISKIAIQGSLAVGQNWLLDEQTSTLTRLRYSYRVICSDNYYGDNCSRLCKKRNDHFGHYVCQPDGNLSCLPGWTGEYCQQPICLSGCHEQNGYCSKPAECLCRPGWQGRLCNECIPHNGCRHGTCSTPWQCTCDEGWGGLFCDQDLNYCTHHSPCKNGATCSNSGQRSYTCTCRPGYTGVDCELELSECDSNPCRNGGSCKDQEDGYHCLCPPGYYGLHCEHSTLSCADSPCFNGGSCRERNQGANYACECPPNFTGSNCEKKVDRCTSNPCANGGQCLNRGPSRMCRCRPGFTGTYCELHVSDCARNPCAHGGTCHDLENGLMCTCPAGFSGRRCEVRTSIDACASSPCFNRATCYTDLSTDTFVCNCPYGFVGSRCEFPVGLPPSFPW

binding result [1]	Kd [2]	koff [2]	kon [2]	Kd [3]	koff [3]	kon [3]	Kd [4]	koff [4]	kon [4]	Kd [5]	koff [5]	kon [5]	Binder
no binding (tested: 100 nM)	0.576 nM	0.00018 s⁻¹	313000 M⁻¹ s⁻¹	0.143 nM	3.16e-05 s⁻¹	221000 M⁻¹ s⁻¹	0.739 nM	0.000134 s⁻¹	181000 M⁻¹ s⁻¹	–	–	–	H2-39E2D11 mouse hybridoma-derived humanized anti-DLL3 antibody (antibody, V domains shown) VH: QVQLVQSGAEVKKPGASVKVSCKASGYTFISYWITWVRQAPGQGLEWMGDIYPGSGSTTNYNEKFKSRVTMTRDTSTSTVYMELSSLRSEDTAVYYCARETTVGGAYAMDYWGQGTLVTVSS VL: EIVLTQSPATLSLSPGERATLSCRASQSINNNLHWYQQKPGQAPRLLIKYVSQSISGIPARFSGSGSGTDFTLTISSLEPEDFAVYYCQQTNSWPLTFGGGTKLEIK
–	–	–	–	–	–	–	–	–	–	0.45 nM	0.000614 s⁻¹	1.36e+06 M⁻¹ s⁻¹	hDLL3-3-1 camelid-derived humanized anti-DLL3 antibody (antibody, human IgG1, V domains shown) VH: EVQLVESGGGLVQPGGSLRLSCAASTYTISSGYMGWFRQAPGKEREGVAAIYIGGSTTLYADSVKGRFTISRDNSKNTLYLQMNSLRAEDTAVYYCAAQLRPNSAYHPLDGRKYNYWGQGTLVTVSS
